Bridge positions count the residues as written; N and C are the ends. Square brackets hold non-standard residues; d marks the D form. Pra = C#CC[C@H](N)C(=O)O
Assays:
MDM2 = target: T1, MDM2 (Homo sapiens, UniProt Q00987); assay: Pull-down binding assay in HeLa K cell extract, MDM2; conditions: azide agarose beads, Western blot
T1 construct: endogenous in cells; host or cells: HeLa K cell extract
Method: (§1) HeLa K cell pellet was re-suspended in the extraction buffer (30 mM HEPES pH 7.5, 175 mM NaCl, 2.5 mM MgCl2, 0.25% NP40, 10% glycerol, 1 mM DTT supplied with complete protease inhibitor cocktail (Roche), PhosSTOP phosphatase inhibitors (Roche), 1 mM PMSF, 10 μM MG132) and incubated for 20 min on ice, followed by centrifugation to clear the lysate for 15 min at 4° C. 16,100 g. In the meantime, inhibitor molecules containing the propargyl-Gly-OH (Pra) chemical group were covalently attached to the azide agarose resin (Jena Bioscience) by Cu(I)-catalysed azide-alkyne cycloaddition reaction. Specifically, the inhibitor molecules were mixed with azide agarose resin in ratio 0.125 μmol inhibitor/20 μl agarose resin. The reaction was catalysed by 0.1 mM CuSO4, 0.5 mM THPTA (Sigma-Aldrich) and 5 mM Sodium ascorbate and was performed on the rotating wheel for 30 min at room temperature in the volume of 1 ml. Subsequently, the resin was washed five times with the extraction buffer. The inhibitor-agarose resin was added to 2 mg of HeLa K cell extract and incubated at 4° C. for 2 h. Afterwards, the resin was washed four times with the extraction buffer. Pull-down proteins were eluted by incubation with pre-warmed 1×LDS sample buffer for 10 min at room temperature followed by taking supernatant supplemented with 100 mM DTT and boiling for 10 min. […]

APC/C (APC11) = target: T2, APC/C (APC11) (Homo sapiens, UniProt Q9NYG5); assay: Pull-down binding assay in HeLa K cell extract, APC/C; conditions: Pra peptide clicked to azide agarose or magnetic beads, Western blot
T2 construct: endogenous in cells; host or cells: HeLa K cell extract
Method: (§2) For the protein transfer, the 0.45 μm Immobilon-FL PVDF membrane (Merck Millipore) was used. The membrane was activated in ethanol and then transferred to the Blotting buffer (50 mM SDS-MOPS, 50 mM Tris base, 0.1% SDS, 1 mM EDTA, 20% EtOH). The proteins were transferred using a wet transfer for 1.5 h at 400 mA. Subsequently, the membrane was incubated with the blocking solution, 10% milk in PBS-T (0.02% Tween-20 in PBS), for 1 h at room temperature. To detect proteins of the interest, the membrane was incubated with primary antibodies overnight at 4° C. Followed by washing the membrane 3 times 10 min with PBS-T and incubation with IRDye fluorescently labelled secondary antibodies for 1 h. Prior detection, the membrane was twice washed with PBS-T for 10 min and once with PBS for 10 min. The detection was done using the quantitative near-infrared scanning system Odyssey (LI-COR Biosciences).
HeLa K cell pellet was re-suspended in the extraction buffer (30 mM HEPES pH 7.5, 175 mM NaCl, 2.5 mM MgCl2, 0.25% NP40, 10% glycerol, 1 mM DTT) supplemented with 10 μM MG132 (VWR), 1 mM PMSF (Sigma-Aldrich), complete protease inhibitor cocktail (Roche) and PhosSTOP phosphatase inhibitors (Roche) and incubated for 20 min on ice, followed by centrifugation of cell debris for 15 min at 4° C. 16 100 g. In mean time, inhibitor molecules containing Propargyl (Pra) chemical group were covalently attached to the azide agarose or azide magnetic resin (Jena Bioscience) by Cu(I)-catalysed azide-alkyne cycloaddition reaction. Specifically, the inhibitor molecules were mixed with azide agarose resin in ratio 0.125 μmol inhibitor/25 μl agarose resin and azide magnetic resin in ratio 0.018 μmol inhibitor/20 μl magnetic resin. The reaction was catalysed by 1 mM CuSO4, 0.1 mM TBTA (Sigma-Aldrich) and 1 mM Sodium ascorbate and was performed on the rotating wheel for 30 min at room temperature in the volume of 1 ml. Subsequently, the resin was washed 5 times with the extraction buffer. The inhibitor-agarose resin was added to 1 mg of HeLa K cell extract and the inhibitor-magnetic resin was added to 0.5 mg of HeLa K cell extract followed by incubation at 4° C. for 2 h. Followed by washing the resin 5 times with the extraction buffer. Pull-down proteins were eluted by boiling for 15 min with 1×LDS sample buffer supplemented with 100 mM DTT (agarose resin) or by incubation with 1×LDS sample buffer for 10 min at room temperature followed by taking supernatant that was supplemented with 100 mM DTT and boiling it for 10 min. Samples were subjected to SDS PAGE and Western blot analysis.
as §1, with “ml.” for “ml. Subsequently, the resin was washed five times with the extraction buffer. The inhibitor-agarose resin was added to 2 mg of HeLa K cell extract and incubated at 4° C. for 2 h. Afterwards, the resin was washed four times with the extraction buffer. Pull-down proteins were eluted by incubation with pre-warmed 1×LDS sample buffer for 10 min at room temperature followed by taking supernatant supplemented with 100 mM DTT and boiling for 10 min.”

c-IAP1 = target: T3, c-IAP1 (Homo sapiens, UniProt Q13490); assay: Pull-down binding assay in HeLa K cell extract, c-IAP1; conditions: azide agarose beads, Western blot
T3 construct: endogenous in cells; host or cells: HeLa K cell extract
Method: as §1

RBX1 = target: T4, RBX1 (Homo sapiens, UniProt P62877); assay: Pull-down binding assay in HeLa K cell extract, RBX1; conditions: azide beads, Western blot
T4 construct: endogenous in cells; host or cells: HeLa K cell extract
Method: as §2
HeLa K cell pellet was re-suspended in the extraction buffer (30 mM HEPES pH 7.5, 175 mM NaCl, 2.5 mM MgCl2, 0.25% NP40, 10% glycerol, 1 mM DTT) supplemented with 10 μM MG132 (VWR), 1 mM PMSF (Sigma-Aldrich), complete protease inhibitor cocktail (Roche) and PhosSTOP phosphatase inhibitors (Roche) and incubated for 20 min on ice, followed by centrifugation of cell debris for 15 min at 4° C. 16 100 g. […]

TRAF2 = target: T5, TRAF2 (Homo sapiens, UniProt Q12933); assay: Pull-down binding assay in HeLa K cell extract, TRAF2; conditions: azide agarose beads, Western blot
T5 construct: endogenous in cells; host or cells: HeLa K cell extract
T5 sequence (Q12933 1-501): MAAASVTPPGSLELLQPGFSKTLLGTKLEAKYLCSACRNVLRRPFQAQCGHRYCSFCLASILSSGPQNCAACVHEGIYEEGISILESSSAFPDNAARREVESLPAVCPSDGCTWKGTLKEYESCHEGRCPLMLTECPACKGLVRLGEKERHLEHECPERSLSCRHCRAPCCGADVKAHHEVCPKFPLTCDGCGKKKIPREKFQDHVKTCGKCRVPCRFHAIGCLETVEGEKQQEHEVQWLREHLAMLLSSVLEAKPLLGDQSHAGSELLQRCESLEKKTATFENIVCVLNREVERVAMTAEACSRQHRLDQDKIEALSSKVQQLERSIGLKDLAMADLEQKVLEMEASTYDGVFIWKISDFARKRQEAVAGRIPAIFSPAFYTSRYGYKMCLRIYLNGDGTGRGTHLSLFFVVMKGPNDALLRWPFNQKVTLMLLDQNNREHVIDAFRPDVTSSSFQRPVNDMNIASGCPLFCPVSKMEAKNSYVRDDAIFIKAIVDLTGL
Method: as §1

BMI-1 = target: T6, BMI-1 (Homo sapiens, UniProt P35226); assay: Pull-down binding assay in HeLa K cell extract, BMI-1; conditions: azide agarose beads, Western blot
T6 construct: endogenous in cells; host or cells: HeLa K cell extract
T6 sequence (P35226 1-326): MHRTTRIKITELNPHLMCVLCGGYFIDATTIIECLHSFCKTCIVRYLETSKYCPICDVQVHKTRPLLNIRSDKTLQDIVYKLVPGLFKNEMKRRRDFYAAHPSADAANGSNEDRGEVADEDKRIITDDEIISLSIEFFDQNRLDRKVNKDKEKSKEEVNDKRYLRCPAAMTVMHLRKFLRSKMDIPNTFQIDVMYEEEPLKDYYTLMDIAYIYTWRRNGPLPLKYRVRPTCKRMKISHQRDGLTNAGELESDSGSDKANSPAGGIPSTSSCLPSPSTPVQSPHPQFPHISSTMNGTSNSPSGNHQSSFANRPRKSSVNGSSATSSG
Method: as §1

BRCA1 = target: T7, BRCA1 (Homo sapiens, UniProt P38398); assay: Pull-down binding assay in HeLa K cell extract, BRCA1; conditions: azide agarose beads, Western blot
T7 construct: endogenous in cells; host or cells: HeLa K cell extract
Method: as §1

c-CBL = target: T8, c-CBL (Homo sapiens, UniProt P22681); assay: Pull-down binding assay in HeLa K cell extract, c-CBL; conditions: azide agarose beads, Western blot
T8 construct: endogenous in cells; host or cells: HeLa K cell extract
Method: as §1

T7 sequence (P38398 whole entry): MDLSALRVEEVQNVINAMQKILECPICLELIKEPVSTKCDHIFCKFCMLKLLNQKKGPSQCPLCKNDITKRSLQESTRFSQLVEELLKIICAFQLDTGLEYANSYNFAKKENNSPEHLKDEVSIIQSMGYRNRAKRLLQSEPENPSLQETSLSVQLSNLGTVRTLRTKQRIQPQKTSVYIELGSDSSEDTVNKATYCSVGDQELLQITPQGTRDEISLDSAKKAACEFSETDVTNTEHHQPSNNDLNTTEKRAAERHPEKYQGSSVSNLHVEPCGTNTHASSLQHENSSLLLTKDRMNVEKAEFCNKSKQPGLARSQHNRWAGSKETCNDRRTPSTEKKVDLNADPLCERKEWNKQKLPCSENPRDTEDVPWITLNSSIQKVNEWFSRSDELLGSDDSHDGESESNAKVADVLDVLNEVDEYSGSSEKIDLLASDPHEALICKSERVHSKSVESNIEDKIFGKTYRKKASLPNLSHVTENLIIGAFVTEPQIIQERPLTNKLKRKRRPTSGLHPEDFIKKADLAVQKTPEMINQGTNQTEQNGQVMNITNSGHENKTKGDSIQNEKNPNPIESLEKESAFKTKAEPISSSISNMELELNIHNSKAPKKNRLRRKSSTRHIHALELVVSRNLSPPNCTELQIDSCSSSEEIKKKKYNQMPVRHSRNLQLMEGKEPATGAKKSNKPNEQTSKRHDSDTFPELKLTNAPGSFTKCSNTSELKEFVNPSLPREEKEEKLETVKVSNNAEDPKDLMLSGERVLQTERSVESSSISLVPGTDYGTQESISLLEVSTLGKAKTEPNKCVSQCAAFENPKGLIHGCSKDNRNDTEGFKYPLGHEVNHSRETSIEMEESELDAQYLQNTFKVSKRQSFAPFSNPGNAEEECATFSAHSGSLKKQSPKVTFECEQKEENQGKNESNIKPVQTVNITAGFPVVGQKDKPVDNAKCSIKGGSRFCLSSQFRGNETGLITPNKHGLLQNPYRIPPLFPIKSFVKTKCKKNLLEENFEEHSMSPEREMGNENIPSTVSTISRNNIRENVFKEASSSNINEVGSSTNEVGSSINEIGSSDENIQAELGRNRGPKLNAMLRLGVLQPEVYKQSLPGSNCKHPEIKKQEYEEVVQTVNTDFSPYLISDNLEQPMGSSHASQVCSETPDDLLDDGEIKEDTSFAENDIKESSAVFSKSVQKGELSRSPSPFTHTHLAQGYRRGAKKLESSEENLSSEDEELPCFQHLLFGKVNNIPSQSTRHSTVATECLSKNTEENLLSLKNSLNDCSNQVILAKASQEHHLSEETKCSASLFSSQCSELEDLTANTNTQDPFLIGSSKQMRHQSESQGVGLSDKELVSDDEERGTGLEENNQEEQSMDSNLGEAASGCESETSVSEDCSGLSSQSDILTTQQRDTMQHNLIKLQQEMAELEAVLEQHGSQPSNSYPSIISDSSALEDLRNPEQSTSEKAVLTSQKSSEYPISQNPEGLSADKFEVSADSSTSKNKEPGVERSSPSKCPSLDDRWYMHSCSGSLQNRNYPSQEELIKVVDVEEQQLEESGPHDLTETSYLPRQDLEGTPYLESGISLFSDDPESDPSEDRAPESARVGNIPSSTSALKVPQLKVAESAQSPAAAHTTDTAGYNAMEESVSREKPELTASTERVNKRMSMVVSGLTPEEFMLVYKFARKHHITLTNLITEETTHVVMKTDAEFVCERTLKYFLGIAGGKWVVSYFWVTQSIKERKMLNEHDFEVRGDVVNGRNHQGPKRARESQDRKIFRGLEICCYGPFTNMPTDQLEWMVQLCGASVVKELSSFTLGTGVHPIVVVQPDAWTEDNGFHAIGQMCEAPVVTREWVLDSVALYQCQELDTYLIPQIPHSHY
T4 sequence (P62877 whole entry): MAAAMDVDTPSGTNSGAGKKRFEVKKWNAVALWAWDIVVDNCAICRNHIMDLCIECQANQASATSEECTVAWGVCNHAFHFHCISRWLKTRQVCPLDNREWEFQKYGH
T1 sequence (Q00987 whole entry): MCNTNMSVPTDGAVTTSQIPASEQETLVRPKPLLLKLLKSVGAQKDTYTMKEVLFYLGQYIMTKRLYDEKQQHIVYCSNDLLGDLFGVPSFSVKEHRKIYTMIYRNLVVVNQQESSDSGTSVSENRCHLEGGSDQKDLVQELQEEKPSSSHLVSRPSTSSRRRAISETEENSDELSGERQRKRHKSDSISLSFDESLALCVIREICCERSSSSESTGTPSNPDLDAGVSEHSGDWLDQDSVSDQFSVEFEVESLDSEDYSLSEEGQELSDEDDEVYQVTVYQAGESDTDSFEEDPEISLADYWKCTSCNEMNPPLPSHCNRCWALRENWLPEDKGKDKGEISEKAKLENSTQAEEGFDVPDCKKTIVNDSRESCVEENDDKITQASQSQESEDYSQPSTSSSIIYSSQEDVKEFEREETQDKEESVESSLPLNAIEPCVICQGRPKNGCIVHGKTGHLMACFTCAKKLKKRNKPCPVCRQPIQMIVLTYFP
T3 sequence (Q13490 whole entry): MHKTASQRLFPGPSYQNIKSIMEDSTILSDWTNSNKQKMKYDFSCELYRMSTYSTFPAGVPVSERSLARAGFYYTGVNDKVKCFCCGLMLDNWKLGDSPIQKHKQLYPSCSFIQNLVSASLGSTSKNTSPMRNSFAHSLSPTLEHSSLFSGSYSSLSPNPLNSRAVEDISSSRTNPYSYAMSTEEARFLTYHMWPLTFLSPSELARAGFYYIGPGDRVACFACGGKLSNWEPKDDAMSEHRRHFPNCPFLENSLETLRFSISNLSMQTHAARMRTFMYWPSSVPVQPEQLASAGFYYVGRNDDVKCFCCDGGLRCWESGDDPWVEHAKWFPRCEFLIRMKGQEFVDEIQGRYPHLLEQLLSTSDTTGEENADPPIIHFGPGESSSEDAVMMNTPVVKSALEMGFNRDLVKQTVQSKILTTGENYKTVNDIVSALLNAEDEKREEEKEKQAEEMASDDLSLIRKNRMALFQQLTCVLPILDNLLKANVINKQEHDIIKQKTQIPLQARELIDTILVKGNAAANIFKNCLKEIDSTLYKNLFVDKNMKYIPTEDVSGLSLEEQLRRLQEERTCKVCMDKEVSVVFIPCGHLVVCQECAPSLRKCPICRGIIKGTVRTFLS

binding to MDM2 (pull-down) (MDM2): binds | binding to the APC/C (pull-down) (APC/C (APC11)): binds | binding to c-IAP1 (pull-down) (c-IAP1): binds | binding to RBX1 (pull-down) (RBX1): binds | binding to TRAF2 (pull-down) (TRAF2): binds | binding to BMI-1 (pull-down) (BMI-1): binds | binding to BRCA1 (pull-down) (BRCA1): binds | binding to c-CBL (pull-down) (c-CBL): binds
Substance: Ac-cyclo(3,12)-PraRCHWGPRTFWCR-NH2 (Ac-[Pra]RCHWGPRTFWCR-NH2; disulfide 3-12; SMILES C#CC[C@H](NC(C)=O)C(=O)N[C@@H](CCCNC(=N)N)C(=O)N[C@H]1CSSC[C@@H](C(=O)N[C@@H](CCCNC(=N)N)C(N)=O)NC(=O)[C@H](Cc2c[nH]c3ccccc23)NC(=O)[C@H](Cc2ccccc2)NC(=O)[C@H]([C@@H](C)O)NC(=O)[C@H](CCCNC(=N)N)NC(=O)[C@@H]2CCCN2C(=O)CNC(=O)[C@H](Cc2c[nH]c3ccccc23)NC(=O)[C@H](Cc2c[nH]cn2)NC1=O) [G1-3Pra]

From US20230391828A1, “REGULATORS OF CELL DIVISION” (TECHNISCHE UNIVERSITÄT DRESDEN, priority 2020, published 2023)
